Measurements: publication PMC4600444

Target: Xis2d protein of CTnDOT (Bacteroides spp. (conjugative transposon CTnDOT))
Test: SEC

Q: Which stoichiometry N does the source give for “Xis2d protein of CTnDOT (natural protein)” here?
A: The stoichiometry N was 2.
